In patent publication US20230183713A1, “SITE-SPECIFIC RECOMBINASES FOR EFFICIENT AND SPECIFIC GENOME EDITING” (TECHNISCHE UNIVERSITÄt DRESDEN, published 2023):

T1: Cre recombinase monomer with Q311R mutation
T1 chain: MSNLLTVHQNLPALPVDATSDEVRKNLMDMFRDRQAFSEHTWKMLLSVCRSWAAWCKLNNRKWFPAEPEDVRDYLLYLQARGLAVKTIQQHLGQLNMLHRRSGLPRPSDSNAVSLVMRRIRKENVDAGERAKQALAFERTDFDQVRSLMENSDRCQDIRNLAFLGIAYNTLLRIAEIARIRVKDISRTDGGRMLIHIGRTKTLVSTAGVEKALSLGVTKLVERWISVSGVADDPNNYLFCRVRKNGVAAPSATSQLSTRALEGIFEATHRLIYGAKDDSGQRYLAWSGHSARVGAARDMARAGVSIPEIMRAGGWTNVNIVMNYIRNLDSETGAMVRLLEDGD

T2: Cre recombinase monomer with Y324L mutation
T2 chain: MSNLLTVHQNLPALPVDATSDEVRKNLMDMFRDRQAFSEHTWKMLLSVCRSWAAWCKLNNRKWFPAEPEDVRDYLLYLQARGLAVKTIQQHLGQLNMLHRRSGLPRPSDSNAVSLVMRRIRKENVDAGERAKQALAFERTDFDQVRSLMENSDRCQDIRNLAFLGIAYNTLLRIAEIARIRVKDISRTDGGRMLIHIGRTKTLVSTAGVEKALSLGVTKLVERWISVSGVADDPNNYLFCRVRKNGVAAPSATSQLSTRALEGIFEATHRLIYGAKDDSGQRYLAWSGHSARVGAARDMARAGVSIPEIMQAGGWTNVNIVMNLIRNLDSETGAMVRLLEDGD

T3: Cre recombinase monomer with Y324V mutation
T3 chain: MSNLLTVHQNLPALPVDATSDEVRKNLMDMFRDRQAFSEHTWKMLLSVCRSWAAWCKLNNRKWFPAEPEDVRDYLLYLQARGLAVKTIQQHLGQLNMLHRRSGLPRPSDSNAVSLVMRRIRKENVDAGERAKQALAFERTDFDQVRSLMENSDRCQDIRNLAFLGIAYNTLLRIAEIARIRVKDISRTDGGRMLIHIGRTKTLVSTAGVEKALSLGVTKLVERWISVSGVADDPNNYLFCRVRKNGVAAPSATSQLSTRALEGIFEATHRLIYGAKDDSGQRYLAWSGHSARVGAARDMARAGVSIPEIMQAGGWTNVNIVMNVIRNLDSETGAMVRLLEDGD

T4: Cre recombinase monomer with Y324M mutation
T4 chain: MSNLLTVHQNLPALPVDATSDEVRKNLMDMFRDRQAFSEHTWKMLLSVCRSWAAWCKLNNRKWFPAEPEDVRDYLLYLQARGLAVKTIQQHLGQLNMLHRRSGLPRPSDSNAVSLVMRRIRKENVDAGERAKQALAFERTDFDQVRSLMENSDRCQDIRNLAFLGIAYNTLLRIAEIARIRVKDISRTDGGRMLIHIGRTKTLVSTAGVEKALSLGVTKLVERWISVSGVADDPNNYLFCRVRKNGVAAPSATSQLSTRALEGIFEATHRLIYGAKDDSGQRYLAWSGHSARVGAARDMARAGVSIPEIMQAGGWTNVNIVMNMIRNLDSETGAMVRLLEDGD

T5: Cre recombinase monomer with W315T mutation
T5 chain: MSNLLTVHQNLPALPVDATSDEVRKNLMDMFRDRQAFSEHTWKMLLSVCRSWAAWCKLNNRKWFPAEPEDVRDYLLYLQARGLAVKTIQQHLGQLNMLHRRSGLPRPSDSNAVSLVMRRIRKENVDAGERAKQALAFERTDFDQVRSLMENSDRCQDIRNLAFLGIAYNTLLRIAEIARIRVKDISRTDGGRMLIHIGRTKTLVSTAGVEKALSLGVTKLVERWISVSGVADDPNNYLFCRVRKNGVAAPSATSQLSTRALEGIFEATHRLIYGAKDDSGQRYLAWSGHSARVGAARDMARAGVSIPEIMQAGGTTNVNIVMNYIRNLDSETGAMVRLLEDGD

T6: Cre recombinase monomer with E176H mutation
T6 chain: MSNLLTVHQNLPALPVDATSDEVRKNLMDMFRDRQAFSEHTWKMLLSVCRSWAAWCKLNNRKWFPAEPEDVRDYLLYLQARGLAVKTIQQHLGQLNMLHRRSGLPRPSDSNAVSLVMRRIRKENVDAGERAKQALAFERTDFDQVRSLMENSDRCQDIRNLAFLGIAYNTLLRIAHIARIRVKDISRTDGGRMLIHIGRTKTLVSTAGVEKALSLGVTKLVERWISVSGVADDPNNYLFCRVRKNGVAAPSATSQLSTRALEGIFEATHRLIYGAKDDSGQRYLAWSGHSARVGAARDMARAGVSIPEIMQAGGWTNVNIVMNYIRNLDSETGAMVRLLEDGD

T7: Cre recombinase monomer with E176M mutation
T7 chain: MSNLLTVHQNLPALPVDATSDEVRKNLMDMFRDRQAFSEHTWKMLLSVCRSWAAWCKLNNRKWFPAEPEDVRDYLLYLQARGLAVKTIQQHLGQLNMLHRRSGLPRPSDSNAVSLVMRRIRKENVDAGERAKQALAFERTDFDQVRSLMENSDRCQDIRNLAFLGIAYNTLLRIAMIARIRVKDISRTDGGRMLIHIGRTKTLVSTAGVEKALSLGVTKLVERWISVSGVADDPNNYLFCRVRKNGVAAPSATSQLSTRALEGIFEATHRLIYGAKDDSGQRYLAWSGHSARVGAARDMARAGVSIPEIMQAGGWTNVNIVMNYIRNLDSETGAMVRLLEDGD


Key:
[1] = target: T1, Cre recombinase monomer with Q311R …
[2] = target: T2, Cre recombinase monomer with Y324L …
[3] = target: T3, Cre recombinase monomer with Y324V …
[4] = target: T4, Cre recombinase monomer with Y324M …
[5] = target: T5, Cre recombinase monomer with W315T …
[6] = target: T6, Cre recombinase monomer with E176H …
[7] = target: T7, Cre recombinase monomer with E176M …

Row | Protein | Median dimer activity (recombination on loxP) [1] | Median dimer activity (recombination on loxP) [3] | also measured
1 | Cre recombinase monomer with K201P mutation (protein) MSNLLTVHQNLPALPVDATSDEVRKNLMDMFRDRQAFSEHTWKMLLSVCRSWAAWCKLNNRKWFPAEPEDVRDYLLYLQARGLAVKTIQQHLGQLNMLHRRSGLPRPSDSNAVSLVMRRIRKENVDAGERAKQALAFERTDFDQVRSLMENSDRCQDIRNLAFLGIAYNTLLRIAEIARIRVKDISRTDGGRMLIHIGRTPTLVSTAGVEKALSLGVTKLVERWISVSGVADDPNNYLFCRVRKNGVAAPSATSQLSTRALEGIFEATHRLIYGAKDDSGQRYLAWSGHSARVGAARDMARAGVSIPEIMQAGGWTNVNIVMNYIRNLDSETGAMVRLLEDGD | 95% | – | Median dimer activity (recombination on loxP) [2]: 59%
2 | Cre recombinase monomer with W315Q mutation (protein) MSNLLTVHQNLPALPVDATSDEVRKNLMDMFRDRQAFSEHTWKMLLSVCRSWAAWCKLNNRKWFPAEPEDVRDYLLYLQARGLAVKTIQQHLGQLNMLHRRSGLPRPSDSNAVSLVMRRIRKENVDAGERAKQALAFERTDFDQVRSLMENSDRCQDIRNLAFLGIAYNTLLRIAEIARIRVKDISRTDGGRMLIHIGRTKTLVSTAGVEKALSLGVTKLVERWISVSGVADDPNNYLFCRVRKNGVAAPSATSQLSTRALEGIFEATHRLIYGAKDDSGQRYLAWSGHSARVGAARDMARAGVSIPEIMQAGGQTNVNIVMNYIRNLDSETGAMVRLLEDGD | – | 97% | –
3 | Cre recombinase monomer with W315G mutation (protein) MSNLLTVHQNLPALPVDATSDEVRKNLMDMFRDRQAFSEHTWKMLLSVCRSWAAWCKLNNRKWFPAEPEDVRDYLLYLQARGLAVKTIQQHLGQLNMLHRRSGLPRPSDSNAVSLVMRRIRKENVDAGERAKQALAFERTDFDQVRSLMENSDRCQDIRNLAFLGIAYNTLLRIAEIARIRVKDISRTDGGRMLIHIGRTKTLVSTAGVEKALSLGVTKLVERWISVSGVADDPNNYLFCRVRKNGVAAPSATSQLSTRALEGIFEATHRLIYGAKDDSGQRYLAWSGHSARVGAARDMARAGVSIPEIMQAGGGTNVNIVMNYIRNLDSETGAMVRLLEDGD | – | 37% | Median dimer activity (recombination on loxP) [4]: 35%
4 | Cre recombinase monomer with W315M mutation (protein) MSNLLTVHQNLPALPVDATSDEVRKNLMDMFRDRQAFSEHTWKMLLSVCRSWAAWCKLNNRKWFPAEPEDVRDYLLYLQARGLAVKTIQQHLGQLNMLHRRSGLPRPSDSNAVSLVMRRIRKENVDAGERAKQALAFERTDFDQVRSLMENSDRCQDIRNLAFLGIAYNTLLRIAEIARIRVKDISRTDGGRMLIHIGRTKTLVSTAGVEKALSLGVTKLVERWISVSGVADDPNNYLFCRVRKNGVAAPSATSQLSTRALEGIFEATHRLIYGAKDDSGQRYLAWSGHSARVGAARDMARAGVSIPEIMQAGGMTNVNIVMNYIRNLDSETGAMVRLLEDGD | – | – | Median dimer activity (recombination on loxP) [2]: 71%
5 | Cre recombinase monomer with K201Y mutation (protein) MSNLLTVHQNLPALPVDATSDEVRKNLMDMFRDRQAFSEHTWKMLLSVCRSWAAWCKLNNRKWFPAEPEDVRDYLLYLQARGLAVKTIQQHLGQLNMLHRRSGLPRPSDSNAVSLVMRRIRKENVDAGERAKQALAFERTDFDQVRSLMENSDRCQDIRNLAFLGIAYNTLLRIAEIARIRVKDISRTDGGRMLIHIGRTYTLVSTAGVEKALSLGVTKLVERWISVSGVADDPNNYLFCRVRKNGVAAPSATSQLSTRALEGIFEATHRLIYGAKDDSGQRYLAWSGHSARVGAARDMARAGVSIPEIMQAGGWTNVNIVMNYIRNLDSETGAMVRLLEDGD | 90% | 26% | –
6 | Cre recombinase monomer with W315L mutation (protein) MSNLLTVHQNLPALPVDATSDEVRKNLMDMFRDRQAFSEHTWKMLLSVCRSWAAWCKLNNRKWFPAEPEDVRDYLLYLQARGLAVKTIQQHLGQLNMLHRRSGLPRPSDSNAVSLVMRRIRKENVDAGERAKQALAFERTDFDQVRSLMENSDRCQDIRNLAFLGIAYNTLLRIAEIARIRVKDISRTDGGRMLIHIGRTKTLVSTAGVEKALSLGVTKLVERWISVSGVADDPNNYLFCRVRKNGVAAPSATSQLSTRALEGIFEATHRLIYGAKDDSGQRYLAWSGHSARVGAARDMARAGVSIPEIMQAGGLTNVNIVMNYIRNLDSETGAMVRLLEDGD | – | – | Median dimer activity (recombination on loxP) [5]: 50%
7 | Cre recombinase monomer with R173C mutation (protein) MSNLLTVHQNLPALPVDATSDEVRKNLMDMFRDRQAFSEHTWKMLLSVCRSWAAWCKLNNRKWFPAEPEDVRDYLLYLQARGLAVKTIQQHLGQLNMLHRRSGLPRPSDSNAVSLVMRRIRKENVDAGERAKQALAFERTDFDQVRSLMENSDRCQDIRNLAFLGIAYNTLLCIAEIARIRVKDISRTDGGRMLIHIGRTKTLVSTAGVEKALSLGVTKLVERWISVSGVADDPNNYLFCRVRKNGVAAPSATSQLSTRALEGIFEATHRLIYGAKDDSGQRYLAWSGHSARVGAARDMARAGVSIPEIMQAGGWTNVNIVMNYIRNLDSETGAMVRLLEDGD | 91% | – | Median dimer activity (recombination on loxP) [6]: 65%; Median dimer activity (recombination on loxP) [7]: 27%
8 | Cre recombinase monomer with R173Q mutation (protein) MSNLLTVHQNLPALPVDATSDEVRKNLMDMFRDRQAFSEHTWKMLLSVCRSWAAWCKLNNRKWFPAEPEDVRDYLLYLQARGLAVKTIQQHLGQLNMLHRRSGLPRPSDSNAVSLVMRRIRKENVDAGERAKQALAFERTDFDQVRSLMENSDRCQDIRNLAFLGIAYNTLLQIAEIARIRVKDISRTDGGRMLIHIGRTKTLVSTAGVEKALSLGVTKLVERWISVSGVADDPNNYLFCRVRKNGVAAPSATSQLSTRALEGIFEATHRLIYGAKDDSGQRYLAWSGHSARVGAARDMARAGVSIPEIMQAGGWTNVNIVMNYIRNLDSETGAMVRLLEDGD | 92% | – | Median dimer activity (recombination on loxP) [7]: 32%
9 | Cre recombinase monomer with R292Y mutation (protein) MSNLLTVHQNLPALPVDATSDEVRKNLMDMFRDRQAFSEHTWKMLLSVCRSWAAWCKLNNRKWFPAEPEDVRDYLLYLQARGLAVKTIQQHLGQLNMLHRRSGLPRPSDSNAVSLVMRRIRKENVDAGERAKQALAFERTDFDQVRSLMENSDRCQDIRNLAFLGIAYNTLLRIAEIARIRVKDISRTDGGRMLIHIGRTKTLVSTAGVEKALSLGVTKLVERWISVSGVADDPNNYLFCRVRKNGVAAPSATSQLSTRALEGIFEATHRLIYGAKDDSGQRYLAWSGHSAYVGAARDMARAGVSIPEIMQAGGWTNVNIVMNYIRNLDSETGAMVRLLEDGD | 96% | – | Median dimer activity (recombination on loxP) [4]: 90%
